Results reported in publication PMC12469269, “Investigating SMR Peptide Interactions with Breast Cancer-Associated Proteins” (International Journal of Molecular Sciences, 2025).

Legend:
[1] = target: Recombinant Human GRP75/HSPA9B/Mortalin His Protein (human) (UniProt P38646); experiment: SPR
[2] = target: Recombinant Human Vimentin Protein, CF (human) (UniProt P08670); experiment: SPR
Sequence of Recombinant Human Vimentin Protein, CF (human) (P08670 whole entry): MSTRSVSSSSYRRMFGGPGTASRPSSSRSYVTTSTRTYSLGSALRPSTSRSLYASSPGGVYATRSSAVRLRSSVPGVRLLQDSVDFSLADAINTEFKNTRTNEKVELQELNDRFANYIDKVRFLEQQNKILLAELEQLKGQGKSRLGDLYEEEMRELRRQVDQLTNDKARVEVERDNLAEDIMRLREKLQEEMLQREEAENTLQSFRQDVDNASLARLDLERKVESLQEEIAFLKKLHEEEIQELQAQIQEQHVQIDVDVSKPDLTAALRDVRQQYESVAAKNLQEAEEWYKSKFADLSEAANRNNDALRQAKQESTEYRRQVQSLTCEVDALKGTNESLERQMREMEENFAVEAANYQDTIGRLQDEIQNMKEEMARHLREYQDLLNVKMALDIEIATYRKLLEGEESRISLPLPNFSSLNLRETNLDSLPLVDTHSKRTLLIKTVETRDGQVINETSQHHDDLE

Sequence of Recombinant Human GRP75/HSPA9B/Mortalin His Protein (human) (P38646 47-679): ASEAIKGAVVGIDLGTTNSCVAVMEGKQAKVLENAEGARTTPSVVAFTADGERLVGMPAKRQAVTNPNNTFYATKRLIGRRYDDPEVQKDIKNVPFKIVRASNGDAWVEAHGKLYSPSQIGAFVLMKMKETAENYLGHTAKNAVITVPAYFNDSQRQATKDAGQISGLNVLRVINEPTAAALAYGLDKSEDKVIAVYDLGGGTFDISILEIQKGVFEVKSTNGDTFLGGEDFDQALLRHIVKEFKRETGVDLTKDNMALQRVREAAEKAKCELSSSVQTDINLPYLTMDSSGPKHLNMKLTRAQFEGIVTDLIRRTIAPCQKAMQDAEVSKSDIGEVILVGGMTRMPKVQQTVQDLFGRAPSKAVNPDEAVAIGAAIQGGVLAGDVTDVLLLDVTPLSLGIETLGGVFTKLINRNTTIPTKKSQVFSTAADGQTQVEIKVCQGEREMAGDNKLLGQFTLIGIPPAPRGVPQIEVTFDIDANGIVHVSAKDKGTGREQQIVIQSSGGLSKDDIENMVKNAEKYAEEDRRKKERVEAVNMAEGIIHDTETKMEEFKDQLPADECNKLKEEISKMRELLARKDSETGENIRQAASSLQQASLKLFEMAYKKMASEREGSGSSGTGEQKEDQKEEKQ

## SMRwt peptide
[1]
  Kd: 20.7 µM
[2]
  Kd: 6.63 µM
